Data taken from patent US20060153840A1.

Biological target: UNC5H2 on human umbilical artery endothelial cells (HUAEC) (human) (UniProt Q8IZJ1)
Test: cell-based or functional assay

UniProt Q8IZJ1, sequence (Q8IZJ1 other isoform, or with tags, fused parts or gaps limits assumed): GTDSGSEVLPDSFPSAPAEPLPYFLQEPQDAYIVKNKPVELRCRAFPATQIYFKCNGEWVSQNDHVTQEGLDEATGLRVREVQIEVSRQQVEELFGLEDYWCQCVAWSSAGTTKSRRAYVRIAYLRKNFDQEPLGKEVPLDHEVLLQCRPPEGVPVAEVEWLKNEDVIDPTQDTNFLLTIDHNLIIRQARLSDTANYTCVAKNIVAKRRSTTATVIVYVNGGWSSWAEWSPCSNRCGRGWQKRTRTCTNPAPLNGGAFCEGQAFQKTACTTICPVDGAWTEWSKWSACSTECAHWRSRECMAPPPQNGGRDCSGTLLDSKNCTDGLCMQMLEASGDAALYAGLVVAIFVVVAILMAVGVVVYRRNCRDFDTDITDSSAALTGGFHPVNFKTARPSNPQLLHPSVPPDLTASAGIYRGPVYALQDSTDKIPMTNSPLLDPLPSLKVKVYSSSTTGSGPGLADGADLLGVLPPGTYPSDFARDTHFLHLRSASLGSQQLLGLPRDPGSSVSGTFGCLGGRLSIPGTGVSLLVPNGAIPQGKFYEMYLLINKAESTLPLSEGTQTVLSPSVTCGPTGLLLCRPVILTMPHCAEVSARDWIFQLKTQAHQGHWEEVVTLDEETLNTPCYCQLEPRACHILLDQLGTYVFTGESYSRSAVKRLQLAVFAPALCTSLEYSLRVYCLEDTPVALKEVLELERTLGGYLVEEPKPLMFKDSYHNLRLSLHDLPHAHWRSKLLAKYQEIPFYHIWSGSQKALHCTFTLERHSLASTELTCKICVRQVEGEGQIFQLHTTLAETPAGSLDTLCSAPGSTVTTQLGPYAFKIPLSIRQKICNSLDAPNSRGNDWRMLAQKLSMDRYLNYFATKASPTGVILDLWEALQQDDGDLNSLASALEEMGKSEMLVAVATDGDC

decrease in transwell migration of HUAEC: 40%
Substance: Netrin-1 secreted by stably transfected 293 cells (ligand)
